For assay [1], the target named is PAM_(NS455), PAM of GAS isolate NS455 (emm52), residues 42-401 (Streptococcus pyogenes (GAS) isolate NS455 (emm52)). Put plainly: AUC.
The target is the same in assay [2]. The experiment in a line: AUC. This is another data set of the same source.
Assay [3] deals with human plasminogen (human) (UniProt P00747). The experiment in a line: SPR. Background: SPR reads the build-up and loss of mass on a sensor chip optically.
The target of assay [4] is PAM_(SS1572), PAM of GAS isolate SS1572 (emm223), residues 42-399 (Streptococcus pyogenes (GAS) isolate SS1572 (emm223)). The experiment in a line: AUC.
Assay [5] shares this target. Put plainly: AUC. This is another data set of the same source.
Assay [6] deals with PAM_(SS1448), PAM of GAS isolate SS1448 (emm86.2), residues 42-375 (Streptococcus pyogenes (GAS) isolate SS1448 (emm86.2)) (UniProt P49054). Put plainly: AUC.
The target is the same in assay [7]. The experiment in a line: AUC. The source holds these as a separate data set.
Assay [8] has as its target PAM_(NS88.2), PAM of GAS isolate NS88.2 (emm98.1), residues 42-385 (Streptococcus pyogenes (GAS) isolate NS88.2 (emm98.1)) (UniProt P49054). The experiment in a line: AUC.
The target is the same in assay [9]. The experiment in a line: AUC. This is another data set of the same source.
Assay [10] addresses human plasminogen (human) (UniProt P00747). Put plainly: SPR. The source holds these as a separate data set.
Assay [11] has the same target. Put plainly: SPR. This is another data set of the same source.
For assay [12] the target is unchanged. The experiment in a line: SPR. This is another data set of the same source.
Assay [13] shares this target. The experiment in a line: SPR. This is another data set of the same source.
For assay [14], the target named is PAM_(SS1574), PAM of GAS isolate SS1574 (emm224), residues 42-360 (Streptococcus pyogenes (GAS) isolate SS1574 (emm224)) (UniProt P49054). Put plainly: AUC.
The target is the same in assay [15]. Put plainly: AUC. The source holds these as a separate data set.
Assay [16] has as its target PAM_(NS223), PAM of GAS isolate NS223 (emm91), residues 42-399 (Streptococcus pyogenes (GAS) isolate NS223 (emm91)). Put plainly: AUC.
Assay [17] has the same target. The experiment in a line: AUC. This is another data set of the same source.
For assay [18], the target named is T1, human plasminogen (human, UniProt P00747 20-810). Put plainly: SPR.
Assay [19] addresses T1, human plasminogen. Put plainly: SPR. The source holds these as a separate data set.
Assay [20] deals with T1, human plasminogen. The experiment in a line: SPR. The source holds these as a separate data set.
For assay [21], the target named is T1, human plasminogen. Put plainly: SPR. The source holds these as a separate data set.
The target of assay [22] is T1, human plasminogen. The experiment in a line: SPR. This is another data set of the same source.

Read-outs that look alike come from different tables or passages of the source.

human plasminogen (human), sequence (P00747 20-810): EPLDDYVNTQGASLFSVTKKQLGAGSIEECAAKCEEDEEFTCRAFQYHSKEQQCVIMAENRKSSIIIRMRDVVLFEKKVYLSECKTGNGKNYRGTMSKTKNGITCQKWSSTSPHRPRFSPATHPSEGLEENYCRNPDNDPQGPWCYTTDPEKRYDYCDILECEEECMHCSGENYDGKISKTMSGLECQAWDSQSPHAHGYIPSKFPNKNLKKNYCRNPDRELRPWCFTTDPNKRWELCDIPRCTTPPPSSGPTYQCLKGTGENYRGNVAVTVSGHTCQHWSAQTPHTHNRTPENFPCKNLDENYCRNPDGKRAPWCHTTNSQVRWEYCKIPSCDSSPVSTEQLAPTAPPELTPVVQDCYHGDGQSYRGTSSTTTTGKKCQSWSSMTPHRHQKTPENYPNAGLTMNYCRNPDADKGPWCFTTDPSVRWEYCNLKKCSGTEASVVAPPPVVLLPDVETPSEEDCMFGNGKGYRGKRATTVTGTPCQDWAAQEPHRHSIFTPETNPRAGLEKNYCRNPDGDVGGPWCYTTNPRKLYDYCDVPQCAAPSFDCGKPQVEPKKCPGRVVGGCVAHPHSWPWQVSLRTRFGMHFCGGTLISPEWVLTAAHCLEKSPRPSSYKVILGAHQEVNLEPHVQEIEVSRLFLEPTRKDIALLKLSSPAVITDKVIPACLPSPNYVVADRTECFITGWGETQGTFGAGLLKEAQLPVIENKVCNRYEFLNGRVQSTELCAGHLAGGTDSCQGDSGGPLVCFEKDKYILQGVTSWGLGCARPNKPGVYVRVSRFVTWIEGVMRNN
T1 sequence (P00747 20-810): as above

The term Kd denotes a measure of binding affinity in units of concentration. The low end stands for tighter binding, the high end for weaker binding. As a reminder, the koff is the rate constant with which the complex falls apart. The term kon denotes the second-order rate constant of association. Turning to “PAM_(NS455), PAM of GAS isolate NS455 (emm52), residues 42-401 (natural protein)”, the % dimer in assay [1] was 20.4%. Also, in [2], the % dimer came out at 86.8%. In [3], the Kd came out at 6 nM, the koff stood at 0.0014 s⁻¹ and the kon came to 340000 M⁻¹ s⁻¹.

In turn, “PAM_(SS1572), PAM of GAS isolate SS1572 (emm223), residues 42-399 (natural protein)” showed a % dimer in assay [4] of 75.3%. In [5], this molecule displayed a % dimer of 95%. Further, in assay [3], the Kd worked out at 40 nM, the koff was found to be 0.0055 s⁻¹ and the kon came out at 170000 M⁻¹ s⁻¹.

Regarding “PAM_(SS1448), PAM of GAS isolate SS1448 (emm86.2), residues 42-375 (from UniProt P49054 42-375) (natural protein)”, the % dimer turned out to be 56.4% in assay [6] and 86.7% in [7]. The molecule also returned a Kd in [3] of 7000 nM.

With “PAM_(NS88.2), PAM of GAS isolate NS88.2 (emm98.1), residues 42-385 (from UniProt P49054 42-385) (natural protein)”, the results for the % dimer in [8] and in assay [9] were 55.5% and 91.4%, respectively. Further, in [3], the Kd came out at 5700 nM.

On to “KTI55_(SS1448), peptide of PAM_(SS1448) residues 85-139 (from UniProt P49054 85-139)”, for which the Kd amounted to 2100 nM in assay [10]; 540 nM in assay [11]; 1500 nM in assay [12]; 360 nM in [3]; 27000 nM in assay [13].

With “AGL55_(NS88.2), peptide of PAM_(NS88.2) residues 95-149 (from UniProt P49054 95-149)”, the Kd is 630 nM in assay [10]; 350 nM in [11]; 830 nM in assay [12]; 160 nM in assay [3]; 7100 nM in [13].

In assay [3], “PAM_(AP53), plasminogen-binding group A streptococcal M-protein of GAS isolate AP53 (emm53), residues 42-392 (natural protein)” registered a Kd of 21 nM, a koff of 0.0043 s⁻¹ and a kon of 210000 M⁻¹ s⁻¹.

“PAM_(SS1574), PAM of GAS isolate SS1574 (emm224), residues 42-360 (from UniProt P49054 42-360) (natural protein)”: the % dimer in assay [14] amounted to 33.5%. Further, the % dimer in assay [15] was 100%. In assay [3], this molecule showed a dissociation constant Kd of 14 nM, a koff of 0.0075 s⁻¹ and a kon of 562000 M⁻¹ s⁻¹.

As to “PAM_(NS223), PAM of GAS isolate NS223 (emm91), residues 42-399 (natural protein)”, the % dimer was 33.7% in assay [16] and 94.5% in assay [17]. Besides, the koff in [3] worked out at 0.0056 s⁻¹.

B1: VEK75_(AP53), peptide of PAM_(AP53) residues 97-171 (peptide)
chain: VEKLTADAELQRLKNERHEEAELERLKSERHDHDKKEAERKALEDKLADKQEHLNGALRYINEKEAEAKEKEAEQ
modifications: Paper number minus 12 gives the entry number. N-terminal GS left by thrombin cleavage is omitted
Turning to B1, the Kd with human plasminogen [18] amounted to 45 nM; in the assay with human plasminogen [19], 0.7 nM; in the assay with human plasminogen [20] it was 15 nM.

B2: PAM_(AP53_medium), truncated PAM_(AP53), residues 42-207 (HVR-a1a2-B-c1) (domain or fragment)
chain: NRADDARNEVLRGNLVRAELWYRQIQENDQLKLENKGLKTDLREKEEELQGLKDDVEKLTADAELQRLKNERHEEAELERLKSERHDHDKKEAERKALEDKLADKQEHLNGALRYINEKEAEAKEKEAEQKKLKEEKQISDASRQGLRRDLDASREAKKQVEKDLA
modifications: Paper number minus 12 gives the entry number. His6 left out. About 11% dimer at 25 C
As to B2, in the assay with human plasminogen [21], the Kd is 16 nM, the koff came to 0.0103 s⁻¹ and the kon is 650000 M⁻¹ s⁻¹. In the assay with human plasminogen [22], binding was characterised by a dissociation constant (Kd) of 2.4 nM, the koff was 0.00054 s⁻¹ and the kon was 230000 M⁻¹ s⁻¹.

B3: PAM_(AP53_long), truncated PAM_(AP53), residues 42-338 (HVR-a1a2-B-c1c2c3-D) (domain or fragment)
chain: NRADDARNEVLRGNLVRAELWYRQIQENDQLKLENKGLKTDLREKEEELQGLKDDVEKLTADAELQRLKNERHEEAELERLKSERHDHDKKEAERKALEDKLADKQEHLNGALRYINEKEAEAKEKEAEQKKLKEEKQISDASRQGLRRDLDASREAKKQVEKDLANLTAELDKVKEEKQISDASRQGLRRDLDASREAKKQVEKGLANLTAELDKVKEEKQISDASRQGLRRDLDASREAKKQVEKALEEANSKLAALEKLNKELEESKKLTEKEKAELQAKLEAEAKALKEQLAK
modifications: Paper number minus 12 gives the entry number. His6 left out. Coiled-coil dimer (87% at 25 C)
For B3, in the assay with human plasminogen [21], binding was put at a Kd of 37 nM, the koff stood at 0.0043 s⁻¹ and the kon worked out at 120000 M⁻¹ s⁻¹. In the assay with human plasminogen [22], the Kd was found to be 2 nM, the koff was found to be 0.00013 s⁻¹ and the kon is 90000 M⁻¹ s⁻¹.

The values are drawn from PMC6502667 (Journal of structural biology, 2019).
